How the values were obtained:
[1] = Small-scale biotransformation of CDCA to 7-KLCA with Cd7α-HSDH and NAD(P)H oxidase, HPLC; assay type: biochemical; details: 10 mM CDCA, NADP^+ regenerated by NAD(P)H oxidase, after 18.5 h
Procedure: FIG. 5: Biotransfomation of CDCA (10 mM) in aqueous system (KPi, pH 7.0), containing 5 U Cd7α-HSDH and 50 U NOX during 18.5 hours. After 3.5 h and 7 h additional 50 U NOX were added to the reaction. Concentration of CDCA (-∘-CDCA) and 7-KLCA (-⋅-7-KLCA) were determined by HPLC.
HPLC analysis was performed on a Purospher® STAR RP-18 column (Merck, Germany) on a HPLC LC-2010AHT-System (Shimadzu, Japan) at a flow rate of 1 ml/min. The mobile phase consisted of two eluents. Eluent A was distilled water (pH 2.6 adjusted with orthophosphoric acid 85%) and eluent B HPLC-grade acetonitrile. The starting condition for the gradient program was 65% eluent A and 35% eluent B. The system was monitored by UV detector at 200 nm. Totally, 20 μl samples with a bile acid concentration in the range of 1 mg/ml were analyzed. Authentic samples of CDCA, 7-KLCA and UDCA at the same concentration were used as references.
For the biotransformation in a small-scale 10 mM CDCA in KPi-buffer (100 mM, pH 7.0), 0.1 mM NADP^+, 0.5 U mL^−1 Cd7α-HSDH and 5 U mL^−1 NADPH-oxidase were incubated at 25° C. The biotransformation were done in glass vials with a stirring bar in it and a stirrer speed of 500 rpm for 18 hours. Samples were taken periodically and diluted with methanol-water (pH 2.6) (9:1 v/v) for H PLC-analysis. […]

[2] = Coupled one-step conversion of CDCA to UDCA with isolated enzymes, NADP(H) as cofactor; assay type: biochemical; details: 10 mM CDCA, 100 mM KPi pH 6.0, 25° C., 0.5 mM NADP^+
Procedure: The enzymatic synthesis of UDCA with isolated enzymes was performed standardized in 100 mM KPi buffer (pH 7.0) at 25° C. The reaction mixtures were magnetically stirred at 500 to 700 rpm. The cofactor concentration was 0.25 mM NAD^+. For the biotransformation with NAD^+ as cofactor, the reaction was performed with […] enzyme, and for the biotransformation with NADP^+ as cofactor the reaction was performed with 0.5 U/ml 7α-HSDH and 1.0 U/ml 7β-HSDH. After pre-determined time intervals, samples were taken and analyzed by means of HPLC.
In a second experiment, the biotransformation was performed in a one-step process with NADP(H) as cofactor. The enzymatic conversion of 10 mM CDCA was performed in 100 mM KPi buffer pH 6.0 at 25° C. with the 7β-HSDH [G39S/R64E] (SEQ ID NO:45) and the Cd7α-HSDH from C. difficile (SEQ ID NO:35) in a one-step process. The cofactor concentration was 0.5 mM NADP^+. For the 7-KLCA reduction, a […] 7β-HSDH from C. aerofaciens was applied and for the CDCA oxidation step the 7α-HSDH from C. difficile was applied. As illustrated a one-step conversion of CDCA in a directly coupled oxidation and reduction reaction with a NADP^+-dependent 7β-HSDH is operable.

[3] = CDCA as substrate
[4] = Photometric activity assay of E. coli 7α-HSDH wildtype and mutants (crude extracts); assay type: biochemical; details: crude extract, substrate CDCA
Procedure: The reaction mixture contained in a total volume of 1 ml:
880 μl 50 mM potassium phosphate (KPi) buffer, pH 8.0
100 μl 100 mM CDCA (dissolved in 50 mM KPi, pH 8)
10 μl Enzyme solution (in buffer as above, in the range of 2 to 6 U/ml)
10 μl 50 mM NAD^+ or NADP^+ (dissolved in ddH2O)
An increase of extinction was determined at 340 nm over a period of 30 seconds and the activity was expressed as enzyme unit (1 U corresponds to a conversion of 1 μmol NAD(P)H/min). The molar extinction coefficient was 6.22 mM^−1×cm^−1.
The photometric activity assay of the crude extract was performed by means of a UV-1700 spectrophotometer (Shimadzu, Japan) (see method described above under item 1.7). In Table 8, the specific activity values of individual mutants as obtained for NAD^+ and NADP^+ are summarized.

[5] = Coupled one-step conversion of CDCA to UDCA with isolated enzymes, NAD(H) as cofactor; assay type: biochemical; details: 25 mM CDCA, 100 mM KPi pH 7.0, 25° C., 0.25 mM NAD^+

Row | Molecule | activity with NADP^+ [4] [U/mg] | activity with NAD^+ [4] [U/mg] | further results
1 | Cd7α-HSDH: NADP+-dependent 7α-hydroxysteroid dehydrogenase from Clostridium difficile (DSM 12056), SEQ ID NO: 34; with N-His-tag SEQ ID NO: 35 (protein, Clostridium difficile) MEKLQGKIAVVTAATKGIGLASAEILAKNGATVYLAARSEELAHEVINKISAEGGCAKFVYFNAREEETFTSMIEEVVKKEGKIDILVNNFGSTNPSLDKDLVTGDTDNFFDTVNTNLKSVYLPCKAAIPHMIKNGKGSIVNISSIGSVLPDLSRIAYCVSKAAINSLTQNIATQYAKDNVRCNAVLPGLIATKAALDNMSPEFIKEFLKHVPLNRIGEPDDIAKAVLFYASDDSSFITGDLLEVAGGFGLPTPQFADNILG |  |  | conversion of CDCA to 7-KLCA [1]: > 99%; conversion of CDCA to 7-KLCA ([1]; listed as enzyme from C. difficile): < 99%; one-step conversion of CDCA in directly coupled oxidation and reduction [2]: operable; activity ([3]; 45° C.): 11 U mg^−1; activity (maximum) ([3]; 60° C.): 77 U mg^−1; temperature of maximum activity ([3]; investigated between 15 and 65° C.): 60 °C
2 | 7α-HSDH [D42G/I43R]: NADP+-dependent double mutant D42G/I43R of E. coli 7α-HSDH, SEQ ID NO: 41 (N-His-Tag) (protein, N-terminal His-tag; 7alpha HSDH E. coli mutant D42G/I43R + N-terminal His-Tag) MGSSHHHHHHSSGLVPRGSHMFNSDNLRLDGKCAIITGAGAGIGKEIAITFATAGASVVVSGRNADAANHVVDEIQQLGGQAFACRCDITSEQELSALADFAISKLGKVDILVNNAGGGGPKPFDMPMADFRRAYELNVFSFFHLSQLVAPEMEKNGGGVILTITSMAAENKNINMTSYASSKAAASHLVRNMAFDLGEKNIRVNGIAPGAILTDALKSVITPEIEQKMLQHTPIRRLGQPQDIANAALFLCSPAASWVSGQILTVSGGGVQELN | 6.3 | 0.1 | activity with NADP^+ ([4]; listed as no. 4): about 6.3 U/mg; activity with NAD^+ ([4]; listed as no. 4): only marginal activity
3 | 7β-HSDH [G39E]: NAD(H)-dependent 7β-HSDH mutant G39E from C. aerofaciens, SEQ ID NO:48 (C-His-Tag) (protein, C-terminal His-tag; 7beta-HSDH Mutante [G39E] C. aerofaciens + C-terminal His-Tag) MNLREKYGEWGLILGATEGVGKAFCEKIAAGGMNVVMVERREEKLNVLAGEIRETYGVETKVVRADFSQPGAAETVFAATEGLDMGFMSYVACLHSFGKIQDTPWEKHEAMINVNVVTFLKCFHHYMRIFAAQDRGAVINVSSMTGISSSPWNGQYGAGKAFILKMTEAVACECEGTGVDVEVITLGTTLTPSLLSNLPGGPQGEAVMKIALTPEECVDEAFEKLGKELSVIAGQRNKDSVHDWKANHTEDEYIRYMGSFYRDLEHHHHHH |  |  | one-step conversion of CDCA in directly coupled oxidation and reduction [5]: operable
4 | 7β-HSDH [G39S/R64E]: NADP+-dependent 7β-HSDH double mutant G39S/R64E from C. aerofaciens, SEQ ID NO:45 (protein, 7beta-HSDH Mutant [G39S/R64E] C. aerofaciens + C-terminal His-tag) MNLREKYGEWGLILGATEGVGKAFCEKIAAGGMNVVMVSRREEKLNVLAGEIRETYGVETKVVEADFSQPGAAETVFAATEGLDMGFMSYVACLHSFGKIQDTPWEKHEAMINVNVVTFLKCFHHYMRIFAAQDRGAVINVSSMTGISSSPWNGQYGAGKAFILKMTEAVACECEGTGVDVEVITLGTTLTPSLLSNLPGGPQGEAVMKIALTPEECVDEAFEKLGKELSVIAGQRNKDSVHDWKANHTEDEYIRYMGSFYRDLEHHHHHH |  |  | one-step conversion of CDCA in directly coupled oxidation and reduction [2]: operable
5 | 7α-HSDH [D42A/I43R]: double mutant D42A/I43R of E. coli 7α-HSDH (SEQ ID NO: 37) (protein, listed as Escherichia coli) MFNSDNLRLDGKCAIITGAGAGIGKEIAITFATAGASVVVSARNADAANHVVDEIQQLGGQAFACRCDITSEQELSALADFAISKLGKVDILVNNAGGGGPKPFDMPMADFRRAYELNVFSFFHLSQLVAPEMEKNGGGVILTITSMAAENKNINMTSYASSKAAASHLVRNMAFDLGEKNIRVNGIAPGAILTDALKSVITPEIEQKMLQHTPIRRLGQPQDIANAALFLCSPAASWVSGQILTVSGGGVQELN | 2.1 | 0 | 
6 | 7α-HSDH [wildtype]: NAD+-dependent 7α-HSDH of E. coli, wildtype, SEQ ID NO: 38 (N-His-Tag) (protein, N-terminal His-tag; E. coli 7alpha HSDH WT + N-terminal His Tag) MGSSHHHHHHSSGLVPRGSHMFNSDNLRLDGKCAIITGAGAGIGKEIAITFATAGASVVVSDINADAANHVVDEIQQLGGQAFACRCDITSEQELSALADFAISKLGKVDILVNNAGGGGPKPFDMPMADFRRAYELNVFSFFHLSQLVAPEMEKNGGGVILTITSMAAENKNINMTSYASSKAAASHLVRNMAFDLGEKNIRVNGIAPGAILTDALKSVITPEIEQKMLQHTPIRRLGQPQDIANAALFLCSPAASWVSGQILTVSGGGVQELN | 0 | 51.6 | 
7 | 7α-HSDH [D42G]: single mutant D42G of E. coli 7α-HSDH (SEQ ID NO: 37) (protein, listed as Escherichia coli) MFNSDNLRLDGKCAIITGAGAGIGKEIAITFATAGASVVVSGINADAANHVVDEIQQLGGQAFACRCDITSEQELSALADFAISKLGKVDILVNNAGGGGPKPFDMPMADFRRAYELNVFSFFHLSQLVAPEMEKNGGGVILTITSMAAENKNINMTSYASSKAAASHLVRNMAFDLGEKNIRVNGIAPGAILTDALKSVITPEIEQKMLQHTPIRRLGQPQDIANAALFLCSPAASWVSGQILTVSGGGVQELN | 0.3 | 0.4 | 
8 | 7α-HSDH [I43R]: single mutant I43R of E. coli 7α-HSDH (SEQ ID NO: 37) (protein, listed as Escherichia coli) MFNSDNLRLDGKCAIITGAGAGIGKEIAITFATAGASVVVSDRNADAANHVVDEIQQLGGQAFACRCDITSEQELSALADFAISKLGKVDILVNNAGGGGPKPFDMPMADFRRAYELNVFSFFHLSQLVAPEMEKNGGGVILTITSMAAENKNINMTSYASSKAAASHLVRNMAFDLGEKNIRVNGIAPGAILTDALKSVITPEIEQKMLQHTPIRRLGQPQDIANAALFLCSPAASWVSGQILTVSGGGVQELN | 0.4 | 51.8 | 

Reference: US11634743B2, “Coupled, self-sufficient biotransformation of chenodeoxcholic acid to ursodeoxycholic acid and novel enzyme mutants applicable in said process” (Pharmazell GmbH, priority 2016, dated 2023)
